What is called Km is the substrate concentration at which the rate is half of its maximum.

Substrate in series [1]: CCCCC/C=C\C\C=C/C=C/C=C/[C@@H](SC[C@@H](NC(=O)CC[C@H](N)C(=O)O)C(=O)NCC(=O)O)[C@@H](O)CCCC(=O)O
Put plainly: cells, lysate or membranes named.

Substrate in series [2]: C[C@]12CC[C@@H]3c4ccc(O)cc4CC[C@H]3[C@@H]1CC[C@@H]2O[C@@H]1O[C@H](C(=O)O)[C@@H](O)[C@H](O)[C@H]1O
Put plainly: cells, lysate or membranes named.

B1: Multidrug resistance-associated protein 1 (Mus musculus) (protein)
chain: MALRSFCSADGSDPLWDWNVTWHTSNPDFTKCFQNTVLTWVPCFYLWSCFPLYFFYLSRHDRGYIQMTHLNKTKTALGFFLWIICWADLFYSFWERSQGVLRAPVLLVSPTLLGITMLLATFLIQLERRKGVQSSGIMLTFWLVALLCALAILRSKIISALKKDAHVDVFRDSTFYLYFTLVLVQLVLSCFSDCSPLFSETVHDRNPCPESSASFLSRITFWWITGMMVHGYRQPLESSDLWSLNKEDTSEEVVPVLVNNWKKECDKSRKQPVRIVYAPPKDPSKPKGSSQLDVNEEVEALIVKSPHKDREPSLFKVLYKTFGPYFLMSFLYKALHDLMMFAGPKILELIINFVNDREAPDWQGYFYTALLFVSACLQTLALHQYFHICFVSGMRIKTAVVGAVYRKALLITNAARKSSTVGEIVNLMSVDAQRFMDLATYINMIWSAPLQVILALYFLWLSLGPSVLAGVAVMILMVPLNAVMAMKTKTYQVAHMKSKDNRIKLMNEILNGIKVLKLYAWELAFQDKVMSIRQEELKVLKKSAYLAAVGTFTWVCTPFLVALSTFAVFVTVDERNILDAKKAFVSLALFNILRFPLNILPMVISSIVQASVSLKRLRIFLSHEELEPDSIERRSIKSGEGNSITVKNATFTWARGEPPTLNGITFSIPEGALVAVVGQVGCGKSSLLSALLAEMDKVEGHVTLKGSVAYVPQQAWIQNDSLRENILFGHPLQENYYKAVMEACALLPDLEILPSGDRTEIGEKGVNLSGGQKQRVSLARAVYSNSDIYLFDDPLSAVDAHVGKHIFEKVVGPMGLLKNKTRILVTHGISYLPQVDVIIVMSGGKISEMGSYQELLDRDGAFAEFLRTYANAEQDLASEDDSVSGSGKESKPVENGMLVTDTVGKHLQRHLSNSSSHSGDTSQQHSSIAELQKAGAKEETWKLMEADKAQTGQVQLSVYWNYMKAIGLFITFLSIFLFLCNHVSALASNYWLSLWTDDPPVVNGTQANRNFRLSVYGALGILQGAAIFGYSMAVSIGGIFASRRLHLDLLYNVLRSPMSFFERTPSGNLVNRFSKELDTVDSMIPQVIKMFMGSLFSVIGAVIIILLATPIAAVIIPPLGLVYFFVQRFYVASSRQLKRLESVSRSPVYSHFNETLLGVSVIRAFEEQERFIHQSDLKVDENQKAYYPSIVANRWLAVRLECVGNCIVLFAALFAVISRHSLSAGLVGLSVSYSLQITAYLNWLVRMSSEMETNIVAVERLKEYSETEKEAPWQIQETAPPSTWPHSGRVEFRDYCLRYREDLDLVLKHINVTIEGGEKVGIVGRTGAGKSSLTLGLFRINESAEGEIIIDGVNIAKIGLHNLRFKITIIPQDPVLFSGSLRMNLDPFSQYSDEEVWMALELAHLKGFVSALPDKLNHECAEGGENLSVGQRQLVCLARALLRKTKILVLDEATAAVDLETDNLIQSTIRTQFEDCTVLTIAHRLNTIMDYTRVIVLDKGEVRECGAPSELLQQRGIFYSMAKDAGLV
On to B1, for which the Km amounted to 0.06 µM in series [1] and 2.9 µM in series [2].

The record behind these values is ChEMBL document CHEMBL2073844, “Pharmacological characterization of the murine and human orthologs of multidrug-resistance protein in transfected human embryonic kidney cells” (Mol Pharmacol, 1997).
